Columns and labels:
[1] = molecular target: recombinant human TLR-2 (Met1 to Leu590) (human, UniProt O60603 21-590, labeled with fluorophore NT-647); experiment: MST
[2] = molecular target: recombinant human TLR-4 (Glu24 to Lys631) (human, UniProt O00206 24-631, labeled with fluorophore NT-647); experiment: MST
recombinant human TLR-4 (Glu24 to Lys631), sequence (O00206 24-631): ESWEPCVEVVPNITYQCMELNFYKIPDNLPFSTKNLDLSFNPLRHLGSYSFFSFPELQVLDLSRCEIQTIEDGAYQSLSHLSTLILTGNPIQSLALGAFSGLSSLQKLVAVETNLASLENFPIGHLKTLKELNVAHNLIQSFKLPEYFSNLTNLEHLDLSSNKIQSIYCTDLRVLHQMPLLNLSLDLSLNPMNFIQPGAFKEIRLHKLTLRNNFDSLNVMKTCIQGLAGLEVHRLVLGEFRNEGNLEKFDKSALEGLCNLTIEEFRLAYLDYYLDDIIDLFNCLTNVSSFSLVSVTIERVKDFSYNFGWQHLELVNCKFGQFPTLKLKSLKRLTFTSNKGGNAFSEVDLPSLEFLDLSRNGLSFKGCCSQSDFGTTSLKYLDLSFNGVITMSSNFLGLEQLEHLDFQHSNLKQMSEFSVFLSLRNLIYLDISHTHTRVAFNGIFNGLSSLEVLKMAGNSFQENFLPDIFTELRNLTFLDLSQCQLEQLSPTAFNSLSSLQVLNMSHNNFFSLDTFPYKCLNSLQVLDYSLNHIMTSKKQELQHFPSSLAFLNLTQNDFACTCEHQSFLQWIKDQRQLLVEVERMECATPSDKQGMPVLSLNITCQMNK

recombinant human TLR-2 (Met1 to Leu590), sequence (O60603 21-590): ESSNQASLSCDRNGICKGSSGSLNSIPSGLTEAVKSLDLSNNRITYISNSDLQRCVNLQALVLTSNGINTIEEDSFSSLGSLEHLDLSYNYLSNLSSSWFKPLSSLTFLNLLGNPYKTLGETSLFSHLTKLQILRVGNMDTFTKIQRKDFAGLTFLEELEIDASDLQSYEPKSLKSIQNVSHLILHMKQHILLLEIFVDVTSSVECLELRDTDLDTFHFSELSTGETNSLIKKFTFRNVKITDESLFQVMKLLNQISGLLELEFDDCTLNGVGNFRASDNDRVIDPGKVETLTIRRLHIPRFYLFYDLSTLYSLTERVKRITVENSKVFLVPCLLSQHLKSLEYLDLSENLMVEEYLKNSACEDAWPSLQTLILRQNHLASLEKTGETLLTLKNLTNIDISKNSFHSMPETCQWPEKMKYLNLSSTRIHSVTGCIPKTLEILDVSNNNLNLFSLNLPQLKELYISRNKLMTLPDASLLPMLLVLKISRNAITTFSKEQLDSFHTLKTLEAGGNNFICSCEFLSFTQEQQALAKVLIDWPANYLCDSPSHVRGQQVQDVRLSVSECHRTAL

Kd [1]: 31 nM
Kd [2]: 28 nM
B1: human biglycan (soluble biglycan proteoglycan) (natural protein, UniProt P21810 38-368, looked up)
chain: DEEASGADTSGVLDPDSVTPTYSAMCPFGCHCHLRVVQCSDLGLKSVPKEISPDTTLLDLQNNDISELRKDDFKGLQHLYALVLVNNKISKIHEKAFSPLRKLQKLYISKNHLVEIPPNLPSSLVELRIHDNRIRKVPKGVFSGLRNMNCIEMGGNPLENSGFEPGAFDGLKLNYLRISEAKLTGIPKDLPETLNELHLDHNKIQAIELEDLLRYSKLYRLGLGHNQIRMIENGSLSFLPTLRELHLDNNKLARVPSGLPDLKLLQVVYLHSNNITKVGVNDFCPMGFGVKRAYYNGISLFNNPVPYWEVQPATFRCVTDRLAIQFGNYKK
modifications: two chondroitin/dermatan sulfate chains

Reference: paper PMC4057019 (Matrix biology : journal of the International Society for …, 2014)
